For six molecules, Kd and koff results are on record in publication PMC5547543 (2017).

Read-outs that look alike come from different tables or passages of the source.

Test in all cases: SPR
(In general: Surface plasmon resonance follows binding to a sensor surface in real time, without labels.)

Experiment [1] has as its target T1, Hck (2PA-YEEI) (UniProt P08631 1-526, C-terminal tail tyrosine of the YEEI motif constitutively phosphorylated; autophosphorylated at the activation loop tyrosine (Tyr-411 of Hck)).
Experiment [2] deals with T1, Hck (2PA-YEEI). This is another data set of the same source.
Experiment [3] has as its target T1, Hck (2PA-YEEI). This is another data set of the same source.

T1 sequence (P08631 other isoform, or with tags, fused parts or gaps): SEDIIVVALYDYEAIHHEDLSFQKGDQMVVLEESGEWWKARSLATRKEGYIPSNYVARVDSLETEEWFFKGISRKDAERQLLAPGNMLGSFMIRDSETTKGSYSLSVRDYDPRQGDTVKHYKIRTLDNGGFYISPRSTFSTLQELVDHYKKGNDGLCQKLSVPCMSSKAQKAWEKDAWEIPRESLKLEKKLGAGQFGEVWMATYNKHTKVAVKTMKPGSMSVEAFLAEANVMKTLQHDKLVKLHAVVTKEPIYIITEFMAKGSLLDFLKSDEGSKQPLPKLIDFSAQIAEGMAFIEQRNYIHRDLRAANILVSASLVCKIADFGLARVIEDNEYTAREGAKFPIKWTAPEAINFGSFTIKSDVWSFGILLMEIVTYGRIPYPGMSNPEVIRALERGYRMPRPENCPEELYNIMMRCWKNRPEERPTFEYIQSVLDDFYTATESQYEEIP

B1: Chk (R278A) (enzyme)
chain: MPTRRWAPGTQCITKCEHTRPKPGELAFRKGDVVTILEACENKSWYRVKHHTSGQEGLLAAGALREREALSADPKLSLMPWFHGKISGQEAVQQLQPPEDGLFLVRESARHPGDYVLCVSFGRDVIHYRVLHRDGHLTIDEAVFFCNLMDMVEHYSKDKGAICTKLVRPKRKHGTKSAEEELARAGWLLNLQHLTLGAQIGEGEFGAVLQGEYLGQKVAVKNIKCDVTAQAFLDETAVMTKMQHENLVRLLGVILHQGLYIVMEHVSKGNLVNFLRTAGRALVNTAQLLQFSLHVAEGMEYLESKKLVHRDLAARNILVSEDLVAKVSDFGLAKAERKGLDSSRLPVKWTAPEALKHGKFTSKSDVWSFGVLLWEVFSYGRAPYPKMSLKEVSEAVEKGYRMEPPEGCPGPVHVLMSSCWEAEPARRPPFRKLAEKLARELRSAGAPASVSGQDADGSTSPRSQEP
As for B1, in the experiment with Hck (2PA-YEEI) [1], binding was characterised by a dissociation constant (Kd) of 13 nM. The koff (as a rule, the first-order rate constant of dissociation) with Hck (2PA-YEEI) [2] stood at 0.000195 s⁻¹.

B2: Chk (R276A) (enzyme)
chain: MPTRRWAPGTQCITKCEHTRPKPGELAFRKGDVVTILEACENKSWYRVKHHTSGQEGLLAAGALREREALSADPKLSLMPWFHGKISGQEAVQQLQPPEDGLFLVRESARHPGDYVLCVSFGRDVIHYRVLHRDGHLTIDEAVFFCNLMDMVEHYSKDKGAICTKLVRPKRKHGTKSAEEELARAGWLLNLQHLTLGAQIGEGEFGAVLQGEYLGQKVAVKNIKCDVTAQAFLDETAVMTKMQHENLVRLLGVILHQGLYIVMEHVSKGNLVNFLATRGRALVNTAQLLQFSLHVAEGMEYLESKKLVHRDLAARNILVSEDLVAKVSDFGLAKAERKGLDSSRLPVKWTAPEALKHGKFTSKSDVWSFGVLLWEVFSYGRAPYPKMSLKEVSEAVEKGYRMEPPEGCPGPVHVLMSSCWEAEPARRPPFRKLAEKLARELRSAGAPASVSGQDADGSTSPRSQEP
Regarding B2, the Kd (commonly a measure of binding affinity in units of concentration) with Hck (2PA-YEEI) [1] was determined as 56 nM. Also, the off-rate constant (koff) with Hck (2PA-YEEI) [2] was found to be 0.000208 s⁻¹.

B3: Csk-Chk chimera (enzyme)
chain: MSAIQAAWPSGTECIAKYNFHGTAEQDLPFCKGDVLTIVAVTKDPNWYKAKNKVGREGIIPANYVQKREGVKAGTKLSLMPWFHGKITREQAERLLYPPETGLFLVRESTNYPGDYTLCVSCDGKVEHYRIMYHASKLSIDEEVYFENLMQLVEHYTSDADGLCTRLIKPKVMEGTVAAQDLTLGAQIGEGEFGAVLQGEYLGQKVAVKNIKCDVTAQAFLDETAVMTKMQHENLVRLLGVILHQGLYIVMEHVSKGNLVNFLRTRGRALVNTAQLLQFSLHVAEGMEYLESKKLVHRDLAARNILVSEDLVAKVSDFGLAKAERKGLDSSRLPVKWTAPEALKHGKFTSKSDVWSFGVLLWEVFSYGRAPYPKMSLKEVSEAVEKGYRMEPPEGCPGPVHVLMSSCWEAEPARRPPFRKLAEKLAREL
As to B3, binding in the experiment with Hck (2PA-YEEI) [3] was characterised by a dissociation constant (Kd) of 1270 nM.

B4: Chk (K387A) (enzyme)
chain: MPTQRWAPGTQCMTKCENSRPKPGELAFRKGDMVTILEACEDKSWYRAKHHSSGQEGLLAAAALRQREALSTDPKLSLMPWFHGKISGQEAIQQLQPPEDGLFLVRESARHPGDYVLCVSFGRDVIHYRVLHRDGHLTIDEAVCFCNLMDMVEHYTRDKGAICTKLVKPKRKQGAKSAEEELAKAGWLLDLQHLTLGAQIGEGEFGAVLQGEYLGQKVAVKNIKCDVTAQAFLDETAVMTKLQHRNLVRLLGVILHHGLYIVMEHVSKGNLVNFLRTRGRALVSTSQLLQFALHVAEGMEYLESKKLVHRDLAARNILVSEDLVAKVSDFGLAKAELRKGLDSSRLPVKWTAPEALKNGRFSSKSDVWSFGVLLWEVFSYGRAPYPAMSLKEVSEAVEKGYRMEPPDSCPGPVHTLMGSCWEAEPSRRPPFRKIVEKLGRELRSVGVAAPAGGQEAEGSAPTRSQDPGSGSHHHHHH
The molecule B4 came in with a koff with Hck (2PA-YEEI) [2] of 0.00036 s⁻¹.

B5: Chk (R280A) (enzyme)
chain: MPTQRWAPGTQCMTKCENSRPKPGELAFRKGDMVTILEACEDKSWYRAKHHSSGQEGLLAAAALRQREALSTDPKLSLMPWFHGKISGQEAIQQLQPPEDGLFLVRESARHPGDYVLCVSFGRDVIHYRVLHRDGHLTIDEAVCFCNLMDMVEHYTRDKGAICTKLVKPKRKQGAKSAEEELAKAGWLLDLQHLTLGAQIGEGEFGAVLQGEYLGQKVAVKNIKCDVTAQAFLDETAVMTKLQHRNLVRLLGVILHHGLYIVMEHVSKGNLVNFLRTRGAALVSTSQLLQFALHVAEGMEYLESKKLVHRDLAARNILVSEDLVAKVSDFGLAKAELRKGLDSSRLPVKWTAPEALKNGRFSSKSDVWSFGVLLWEVFSYGRAPYPKMSLKEVSEAVEKGYRMEPPDSCPGPVHTLMGSCWEAEPSRRPPFRKIVEKLGRELRSVGVAAPAGGQEAEGSAPTRSQDPGSGSHHHHHH
Regarding B5, the Kd in the experiment with Hck (2PA-YEEI) [1] turned out to be 35 nM. This molecule also gave a dissociation rate constant (koff) with Hck (2PA-YEEI) [2] of 0.00024 s⁻¹.

B6: Chk (R382A) (enzyme)
chain: MPTQRWAPGTQCMTKCENSRPKPGELAFRKGDMVTILEACEDKSWYRAKHHSSGQEGLLAAAALRQREALSTDPKLSLMPWFHGKISGQEAIQQLQPPEDGLFLVRESARHPGDYVLCVSFGRDVIHYRVLHRDGHLTIDEAVCFCNLMDMVEHYTRDKGAICTKLVKPKRKQGAKSAEEELAKAGWLLDLQHLTLGAQIGEGEFGAVLQGEYLGQKVAVKNIKCDVTAQAFLDETAVMTKLQHRNLVRLLGVILHHGLYIVMEHVSKGNLVNFLRTRGRALVSTSQLLQFALHVAEGMEYLESKKLVHRDLAARNILVSEDLVAKVSDFGLAKAELRKGLDSSRLPVKWTAPEALKNGRFSSKSDVWSFGVLLWEVFSYGAAPYPKMSLKEVSEAVEKGYRMEPPDSCPGPVHTLMGSCWEAEPSRRPPFRKIVEKLGRELRSVGVAAPAGGQEAEGSAPTRSQDPGSGSHHHHHH
With B6, the koff with Hck (2PA-YEEI) [2] is 0.000322 s⁻¹.
